Test results taken from the supplement of paper PMC9170038.

What follows are sequences tested on K4 kissing-loop RNA reporter (assay: apparent KD of K4 kissing-loop reporter; higher = weaker reporter binding). Conditions: Eterna round: R107; input ligand: arginine 13.2 mM.
Procedure: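 RNA-MaP round R107: designed RNA switches with theophylline, tryptophan, arginine or FMN aptamers are transcribed on-chip within common flanks. They are titrated with a labelled K4 kissing-loop RNA reporter in RNA-MaP buffer (100 mM Tris pH 7.5, 80 mM KCl, 4 mM MgCl2), without ligand or with the indicated ligand. Median apparent KD per design.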
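Further: bound reporter read as fluorescence of individual clusters on recovered sequencing chips by microscopy, with normalized cluster intensities fitted with a binding model.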

Sequence | apparent KD of K4 kissing-loop reporter [µM]
UGACUGGACUGAAGGAGCGCGCGAGACAAAGUCUCGAACUGCUAGUGAUGUUAGCAAAUAACGCAGGUAGGUCGCAGUCUAGUCU [ArgBS 11 #SwitchBubble #StaticStem #DoubleMagnet] | 0.1
AACUGUCAAGGCCAACAUUACUGAGGUGAUACCAGCAUCGAAAGAUGCCCUUGGCAGCACCGACUUGCAGUGAUGUUGCAAGUAA [BrourdMod 12 - Jieux - Exclusion - Theophylline A] | 0.266
UGCCCGCGCGAAGGAUAUGAGAGCUUGUCUGUCCAGUGAUGUUGGAGGUUGGUGAUUUGCUAGGCGUCAGAAGGUCGAGCUUAUA [theeternabot_sameState_KL_FMN_B_14] | 0.0944
UAAGAGGACCACUACAAGAGUCCUCGAAUACGAGGACCGGUACGGCCGCCACUCGAUAACUUGUAGUGAUGUUGCAAGUAAGAAU [BrourdMod 2 - Jieux - Same State Tryptophan A] | 0.0856
UUGGCAGUGAUGUUGCCAGACAUCACCGAAGGAGCGGGCGAAAGCCCAGGUAGGUCGCGGUAGCGGAGUGAUUCUCCGCGAGGGC [Same State Arginine A GF 23] | 0.621
GCAACAUUGGCAGGAUAUCCUUCUCAGUGAUGUUGAGGGUUCAGCUAACGAAAGUUAGUUGUACCGGGAGAAGGGCUAAUGUUGC [Omei KL FMN B SS A v8] | 0.65
GCGGCGGGCCAAGGAUAUAUAUUGGAGUGAUGUUGUUCAUUUAUUUGAGCUAGUGAUGUUGGUCAGAUAGAAGGUGGCCCGCCGC [whbob_Ex_FMNB__2th216] | 0.0301
CUAUAAGUGCCGAGUGAUGUUCGGCCAAUACGAGGACCGGUACGGCCGCCACUCGGUCAGUCGGUGCCCACCGGGCAUGGCUGAC [Ortima] | 0.237
UAACUUGCAGUGAUGUUGCAAGAACUGGAUACCAGCAUGGAAACAUGCCCUUGGCAGCCAGAAGGUAUCCUCUUGCAUAGAUACU [Design3] | 0.178
CACCAUGAAUUCUCUAGGAGUGAUGUUUUUCGAGGACCGGUACGGCCGCCACUCGGACGAGGACCGUGGGAGCGGCGAACCGACU [ddfgmullin] | 0.0747
AGACUUCACCGAAGGAGCGACGUAGCCUAGUGAUGUUAGGCACGAGAGAAAUCUCGUAUACGUCAGGUAGGUCGCGGUGAAGUCA [Omei KL Arginine B SS C v1] | 0.138
UGUGUUUACCUGACUCAGUGAUGUUGAGAAGGAGCGUUCGAAAGAACAGGUAGGUCGCUCAACCUAAAUUCAGGUGAGCACUAAA | 0.223
UGGUUCAAUACGGCCGCCACUGGUGAGUGAUGUUUACCGUCUAUAUCAUGUGUCGAGAGCGCUAUCAGGACCGGGUAGGGACCGU [theeternabot_exclusion_KL_Trp_B_42] | 0.396
GGAUAGGAUAGAGGAUAUGGCUUACACAGAAAUAACUUGUUGUGUUUAUCCAUAGGGAGUGAUGUUCCAGAAGGCUGUCCUAUCG [MatMod 19 - Jieux - Exclusion - FMN B] | 0.197
UUGCGGAGUGAUGUUUCGGGAUAUCGGGAAGGAGCGCCGAUAACGGCAGGUAGGUCGCCCGGUCCAGUGAUGUUGGGCAUGCAUU [Exclusion Arg A GF 23] | 0.136
CUAUGAGUGAUGUUCGUAGGUUGGGCUUGGCAGGAUAUGGGAUCUUCCAGAAGGGCCGAUUCCGGCGAGUGAUGUUCGUUGGUCU [Exclusion FMN A GF30] | 0.0421
CCUAUCUCAUACGAUACCAGUCCGAGUGAUGUUCGAACAUAAAUUAGUUUGCCAUAUAAUGACCCUUGGCAGCGUAUGGGAUAGG [Ex Theophylline B K4 12] | 0.448
UCCACGCUUAGAGGAUAUCGGAUUAGAGUGAUGUUCUAAAGAAGCCCAGUGAUGUUGGAUGGUAUACGAGAAGGCUGUGGCGUGU [Same State FMN B GF 4] | 0.446
CUUGGAAGGACGGCCGCCACUCGACGGAGUGAUGUUCCGUGUGGGUAGCGCAGUGAUGUUGUGUCGAGGACCGGGUCCUAGGAAU [Exclusion Tryptophan B GF 28] | 0.115
AAACUUGCAGUGAUGUUGCAAGUAGGUGAUACCAGCAUCGAAAGAUGCCCUUGGCAGCACCAACACUGUAAGUAAGUAUCACCAA [(H1)-(H2)-(T1)-(T2)-(H)'-(T)'_Design2] | 0.12
UGGACCGCCUGAGGAUAUAGGGACGAGUGAUGUUCGUGGACCAGAGCCAGUGAUGUUGGGUUAUUUCUAGAAGGCGGGCGAACUU [Exclusion FMN B GF11] | 0.167
GGGUUUGCCGGAAGGAGCGCACUAUGGAGUGAUGUUCCAUGACCGCACAGCUUGCGGUCAGUGCAGGUAGGUCGCCGGUAGCGUU [Maedzaus] | 0.203
AGAUGGAAUAGAAGGAGCGGCGCCAGUGAUGUUGGAUGCCGCGGGUGAAUCAUGUCAUAGUGCCAGGUAGGUCGCUAUUUCAGCU [Beinveve] | 0.0981
AUGCUUUUAAUAACACUAUAUACAGCUGAAGGAGCGACAAUAAAGUCAGGUAGGUCGCAGAAUAGAUGAGUGAUGUUCAUUUUUA [#05 K4 Arginine A Exclusion] | 0.178

Same assay, conditions: Eterna round: R107; input ligand: none

Sequence | apparent KD of K4 kissing-loop reporter [µM]
AAUAAGGAGUGAUGUUCCAAGUGAUGUUAACGAGGACCGGUACGGCCGCCACUCGAUACGGCCGGAAAGUAAGAUAAACUACAAU [Same State - Tryptophan A (Freestyle 3)] | 0.0608
UAUGAAGGUGGAGGAUAUUGAUUGAACCUUGGUCAGGAGUGAUGUUCCGGGAAGCCUUGGGUUCAUCGAGAAGGCCAAGGAUAGU [Extra 2] | 0.254
GCCGUAGAUUGAAGGAGCGGACUUAUAGGUCUUAAGGAGUGAUGUUCCUGACACUCGGCGGUCCAGGUAGGUCGCAAUCUACGGC | 0.32
UGACAUUGCUCAGAUACCAGACACGAGGAUCACCCGUGUGCCAAAACGUACUAAAUAAGUGUCCCUUGGCAGCUGAGCAAUGUCU [TheoBX 13] | 0.0301
GCAUCAUGCUACGAUACCAGAAGUUCCCUUUAGUGUAGUGAUGUUGCAGAUAUUGCUUACUUCCCUUGGCAGCGUUUGACGGGUA [theeternabot_sameState_KL_Theo_B_35] | 0.22
AAUGCAUUGUGAAGGAGCGCGUUAAGCAGUGAUGUUGCUUUUAUAUUUUUCAGUUUUAUAUCGCAGGUAGGUCGCACUUUGCAUA [JR_Nu_SSArginiB_Sub029] | 0.173
UUAGGAGUGGAAGGAUAUCCUGGUGUGGGUGGUGUUAGUGAUGUUGGUGGUGCAGUGAUGUUGCGCGGAGAAGGUCCGGUGUUGA [BDazzled - #4 - Exc. FMN B] | 0.434
UGACUGGACUGAAGGAGCGCGCGAGACAAAGUCUCGAACUGCUAGUGAUGUUAGCAAAUAACGCAGGUAGGUCGCAGUCUAGUCU [ArgBS 11 #SwitchBubble #StaticStem #DoubleMagnet] | 0.137
AACUGUCAAGGCCAACAUUACUGAGGUGAUACCAGCAUCGAAAGAUGCCCUUGGCAGCACCGACUUGCAGUGAUGUUGCAAGUAA [BrourdMod 12 - Jieux - Exclusion - Theophylline A] | 0.333
UGCCCGCGCGAAGGAUAUGAGAGCUUGUCUGUCCAGUGAUGUUGGAGGUUGGUGAUUUGCUAGGCGUCAGAAGGUCGAGCUUAUA [theeternabot_sameState_KL_FMN_B_14] | 0.153
UAAGAGGACCACUACAAGAGUCCUCGAAUACGAGGACCGGUACGGCCGCCACUCGAUAACUUGUAGUGAUGUUGCAAGUAAGAAU [BrourdMod 2 - Jieux - Same State Tryptophan A] | 0.0853
UUGGCAGUGAUGUUGCCAGACAUCACCGAAGGAGCGGGCGAAAGCCCAGGUAGGUCGCGGUAGCGGAGUGAUUCUCCGCGAGGGC [Same State Arginine A GF 23] | 0.937
GCAACAUUGGCAGGAUAUCCUUCUCAGUGAUGUUGAGGGUUCAGCUAACGAAAGUUAGUUGUACCGGGAGAAGGGCUAAUGUUGC [Omei KL FMN B SS A v8] | 1.1
GCGGCGGGCCAAGGAUAUAUAUUGGAGUGAUGUUGUUCAUUUAUUUGAGCUAGUGAUGUUGGUCAGAUAGAAGGUGGCCCGCCGC [whbob_Ex_FMNB__2th216] | 0.0511
CUAUAAGUGCCGAGUGAUGUUCGGCCAAUACGAGGACCGGUACGGCCGCCACUCGGUCAGUCGGUGCCCACCGGGCAUGGCUGAC [Ortima] | 0.205
